Measured values taken from article PMC7293005 (Nucleic Acids Research, 2020).

Molecular target: T1, 6xHis-tagged full-length Prp5p (S. cerevisiae, UniProt P21372 1-849)
T1 sequence: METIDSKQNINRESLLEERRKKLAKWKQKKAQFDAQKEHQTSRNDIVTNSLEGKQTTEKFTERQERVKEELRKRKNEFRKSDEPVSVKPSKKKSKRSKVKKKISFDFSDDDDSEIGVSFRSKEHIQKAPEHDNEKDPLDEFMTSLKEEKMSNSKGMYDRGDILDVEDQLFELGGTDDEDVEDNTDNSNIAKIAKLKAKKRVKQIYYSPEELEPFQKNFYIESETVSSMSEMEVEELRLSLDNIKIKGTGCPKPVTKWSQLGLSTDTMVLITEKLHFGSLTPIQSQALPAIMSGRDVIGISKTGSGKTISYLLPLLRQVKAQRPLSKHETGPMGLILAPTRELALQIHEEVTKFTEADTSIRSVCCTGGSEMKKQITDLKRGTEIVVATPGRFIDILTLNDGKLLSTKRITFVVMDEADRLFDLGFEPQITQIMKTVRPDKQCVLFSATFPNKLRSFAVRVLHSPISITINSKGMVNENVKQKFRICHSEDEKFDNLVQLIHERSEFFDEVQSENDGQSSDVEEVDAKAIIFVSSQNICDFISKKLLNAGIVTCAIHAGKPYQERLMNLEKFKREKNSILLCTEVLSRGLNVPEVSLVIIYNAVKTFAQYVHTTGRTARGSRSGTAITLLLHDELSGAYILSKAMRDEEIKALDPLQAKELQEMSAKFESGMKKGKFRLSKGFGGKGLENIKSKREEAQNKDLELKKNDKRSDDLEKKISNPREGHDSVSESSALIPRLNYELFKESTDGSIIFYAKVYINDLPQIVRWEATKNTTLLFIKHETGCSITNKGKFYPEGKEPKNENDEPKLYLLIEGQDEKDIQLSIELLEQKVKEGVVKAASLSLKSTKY
Test: pull-down

B1: GST-tagged Spt8p (natural protein, S. cerevisiae, UniProt P38915 1-602, looked up)
chain: MDEVDDILINNQVVDDEEDDEEMLSGLENDSKQDLEGNDDGGEDEEDDDDDDEDDDDDEDEREDDDEQEDDDGEDDAARMDKTATPTNEHQHDEQKAAAAGAGGAGDSGDAVTKIGSEDVKLSDVDGGVGSREASSSTHEASANGEVYEYYKHMLNAAQIADSYNIYPTAAIPIQTHVNALAVSRGLKYLFLGGSDGYIRKYDLLNTLEGKLSLTILQKHSLAESIQNAGILQSYWENEIPQKKSEMKLSANKTDYEPKVSPVHSLEVQSECLFILSGLQNGGITMQGVRYMEGSIAHYFKGRNGHTQIVNILRLNGQEDRFLSGSWDKRLLEWDLQTGDIVNEFKKSRSELSSLEMRPLYSSVDVSGNVNSGKENENADDDMDSLFGDEDEDEKQDAGNEPVETGDGSNGEENKEQISEESLNIVYDESVFMTSGLNGSVHIWDRRMTQSPALSLERGAGVPPWCLSACWGVDGDHVYAGRRNACVEQFDLKMPSKPIHNLKLPSISGPVSCVKAMPNNKHLLCASRDNIRLYNVEIAVDASNSTTKSSKVPFLIVPGHHGGIISNLYLDPTSRFIISTSGNRGWQGNSTDTTLIYDIDLE
  binding result: binds
